Source: patent US20130059782

Biological target: full-length TF his-tag modified protein in yeast-derived microvesicles (TT-173): mature hTF with Asn124Ala mutation and six histidines at the C-terminus

B1: activated coagulation Factor VII (purified commercial FVIIa) (protein)
chain: ANAFLEELRPGSLERECKEEQCSFEEAREIFKDAERTKLFWISYSDGDQCASSPCQNGGSCKDQLQSYICFCLPAFEGRNCETHKDDQLICVNENGGCEQYCSDHTGTKRSCRCHEGYSLLADGVSCTPTVEYPCGKIPILEKRNASKPQGRIVGGKVCPKGECPWQVLLLVNGAQLCGGTLINTIWVVSAAHCFDKIKNWRNLIAVLGEHDLSEHDGDEQSRRVAQVIIPSTYVPGTTNHDIALLRLHQPVVLTDHVVPLCLPERTFSERTLAFVRFSLVSGWGQLLDRGATALELMVLNVPRLMTQDCLQQSRKVGDSPNITEYMFCAGYSDGSKDSCKGDSGGPHATHYRGTWYLTGIVSWGQGCATVGHFGVYTRVSQYIEWLQKLMRSEPRPGVLLRAPFP
- amidolytic activity of the TF:FVIIa complex (chromogenic substrate S-2288), TT-173 with or without added PS: there was no appreciable differences in the amidolytic activity between TT-173 with or without PS at the three concentrations of TT-173 tested, and at both concentrations of FVIIa used, 50 nM (not shown) or 500 nM (FIG. 7)
